B1: THAP1; numbered along this chain (parent)
chain: MVQSCSAYGCKNRYDKDKPVSFHKFPLTRPSLCKEWEAAVRRKNFKPTKYSSICSEHFTPDCFKRECNNKLLKENAVPTIFLCTEPHDKKEDLLEPQEQLPPPPLPPPVSQVDAAIGLLMPPLQTPVNLSVFCDHNYTVEDTMHQRKRIHQLEQQVEKLRKKLKTAQQRCRRQERQLEKLKEVVHFQKEKDDVSERGYVILPNDYFEIVEVPA

Variants of: B1
Test: THAP1 transcriptional activity (GFP+/GFP- enrichment relative to wild-type constructs) (ratio to WT); higher = more THAP1 activity (PSMB5 reporter activation)
Conditions: with PSMB5 promoter-GFP reporter
Experimental: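 Deep mutational scan of human THAP1. Site-saturation single amino acid variant library (residues 2-213) was expressed by lentivirus at MOI ~0.3 in THAP1-knockout HEK-293T cells carrying an endogenous PSMB5 promoter-GFP knock-in reporter. Five days post-transduction, BFP+ cells were FACS-sorted into GFP dim and GFP bright populations and variants were counted by Illumina sequencing. Activity is the GFP-bright/GFP-dim read fold change, mean of 2 replicates, divided by the mean fold change of wild-type (synonymous) constructs in the same screen pool; WT = 1.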

THAP1 transcriptional activity: each site, then its substitutions
R42: Y 0.103
K43: Y 0.365; E 0.598; D 0.503; T 0.689; P 0.957; Q 1.02; V 0.726; L 0.454; H 0.626; C 0.621; I 0.615; F 0.153; S 0.623; G 0.329; R 0.716; W 0.278; A 0.587; M 0.434
P60: Q 1.17; W 0.256; Y 0.259; E 0.745; D 0.532; M 0.374; L 0.35; G 0.443; N 0.844; S 0.985; K 0.834; T 0.758; F 0.333; C 0.174; H 0.509; A 0.758; R 0.718
N44: R 0.178; W 0.123; F 0.301; C 0.476; S 0.494; M 0.177; A 0.194; D 1.16; P 0.0859; T 0.439; V 0.111; G 1.06; E 0.348; I 0.118; Y 0.297; H 0.574; K 0.462; L 0.205
S51: G 0.0575; V 0.102; E 0.185; R 0.0935; T 0.421; P 0.118; I 0.124; L 0.111; W 0.122; K 0.121; N 0.16; D 0.0561; A 0.32; Q 0.0846; F 0.102; C 0.128; Y 0.0754; M 0.26; H 0.145
E56: P 0.0876; Q 0.873; T 0.336; W 0.249; F 0.363; A 0.98; K 0.472; I 0.6; L 0.526; D 1.26; G 0.114; H 0.253; Y 0.194; R 0.389; N 0.344; C 0.263; S 0.473; M 0.509; V 0.83
S55: L 0.106; A 0.112; I 0.114; K 0.0934; H 0.0394; E 0.127; R 0.113; Y 0.109; G 0.185; M 0.0662; W 0.0398; V 0.101; N 0.147; F 0.084; P 0.0679; T 0.128; C 0.0655; Q 0.168; D 0.077
H57: K 0.126; C 0.196; Y 0.115; I 0.102; L 0.107; G 0.0681; Q 0.0983; N 0.0635; M 0.138; F 0.126; V 0.105; T 0.109; R 0.183; D 0.0578; P 0.0956; E 0.0678; W 0.0852; A 0.116; S 0.121
T48: D 0.113; H 0.102; I 0.123; C 0.128; Y 0.0779; G 0.419; W 0.0814; S 0.729; P 0.174; R 0.132; L 0.115; E 0.0991; Q 0.0994; F 0.109; A 0.107; M 0.138; N 0.545; K 0.158; V 0.12
T59: K 0.423; L 0.372; I 0.147; R 0.426; D 0.292; Q 0.605; F 0.186; C 0.138; W 0.0856; N 0.386; G 0.413; E 1.07; M 0.544; H 0.511; Y 0.0936; P 0.248; V 0.269; A 0.736
P47: N 0.138; L 0.242; H 0.106; F 0.0757; D 0.108; G 0.111; Y 0.114; R 0.0941; Q 0.104; I 0.36; E 0.173; V 0.712; T 0.151; A 0.896; S 0.14; C 0.229; W 0.0629; K 0.111
C54: Y 0.124; L 0.0556; F 0.105; D 0.178; K 0.097; Q 0.0652; M 0.0985; S 0.154; I 0.0624; E 0.0874; G 0.0692; A 0.0793; N 0.106; T 0.0761; P 0.234; W 0.107; H 0.0812; R 0.0929; V 0.0511
F58: Y 0.153; K 0.0827; N 0.0722; E 0.149; W 0.143; D 0.0836; I 0.0956; M 0.105; R 0.046; L 0.121; T 0.0696; V 0.115; A 0.0948; P 0.0346; G 0.064; H 0.131; C 0.0689; S 0.0937; Q 0.0792
I53: T 0.111; K 0.0685; Q 0.0507; G 0.0813; A 0.136; Y 0.141; N 0.0864; S 0.112; P 0.0932; V 0.447; W 0.052; M 0.194; R 0.0647; D 0.133; H 0.1; E 0.101; F 0.0519; C 0.164
S52: Y 0.46; C 1.57; D 0.109; H 0.251; N 0.469; V 1.14; L 0.606; F 0.325; P 0.096; T 1.41; E 0.0459; G 0.141; K 0.641; Q 0.261; M 0.633; A 1.55; W 0.089; I 0.379
F45: T 0.0941; M 0.12; S 0.0855; A 0.0632; D 0.0693; G 0.0858; K 0.0558; L 0.142; H 0.161; P 0.114; I 0.0544; E 0.0902; Q 0.128; Y 0.154; C 0.027; N 0.108; V 0.0786; R 0.146
K46: I 0.465; P 0.126; W 0.148; L 0.23; C 0.377; F 0.339; T 0.869; E 0.212; D 0.0595; N 0.295; M 0.442; Q 0.581; H 0.654; G 0.0852; R 0.568; S 0.379; A 0.436; V 0.455; Y 0.335
K49: P 0.264; S 0.261; M 0.232; L 0.234; I 0.398; V 0.257; H 0.0815; N 0.177; G 0.123; W 0.1; Q 0.317; D 0.12; Y 0.0951; A 0.22; T 0.138; F 0.122; E 0.105; C 0.185; R 0.427
Y50: D 0.129; T 0.13; Q 0.0845; C 0.275; R 0.09; E 0.108; V 0.12; N 0.389; S 0.268; P 0.103; F 0.616; M 0.091; I 0.112; A 0.294; K 0.0751; H 0.759; L 0.135; G 0.1
D61: A 0.309
